Non-standard residues stand in square brackets, D forms with d. No end group written: not given here. *: point of attachment. Biotin = O=C1N[C@H]2[C@H](CS[C@H]2CCCCC(=O)*)N1; pS = N[C@@H](COP(=O)(O)O)C(=O)O; code U = not defined here; code X = not defined here
T1: Tau(pS422) fragment SEQ ID NO: 03 (human)
T1 construct: also called phosphorylated tau peptide
T1 peptide: SIDMVD[pS]PQLATLAD

T2: tau peptide residues 416 to 430 of SEQ ID NO: 01 (human, also: biotinylated, site not given here)
T2 construct: also called non-phosphorylated tau peptide
T2 peptide: SIDMVDSPQLATLAD

T3: biotinylated pTau fragment pTau(416-430)[Bi-XUUUU-416; pSer-422]amid (human, reading uncertain; also: printed as pTau(416-430)[Bi-XUUUU-416; pSer-422]amid)
T3 construct: also called Tau(pS422) fragment
T3 peptide: {Biotin-code X-code U-code U-code U-code U}-SIDMVD[pS]PQLATLAD-NH2

B1: VH32/VL21 (antibody, V domains shown)
VH: EVQVLESGGGLVQPGGSLRLSCAVSGFSLSSNAINWVRQAPGKGLEWVGYIAVSGNTYYASWAKGRFTISRDNSKNTVYLQMNSLRAEDTAVYYCGKSNIWGQGTLVTVSS
VL: AQVMTQSPSSLSASVGDRVTITCRSSQSVRTNKLAWFQQKPGQPPKRLIYSASTLDFGVPSRFSGSGSGTEFTLTISSLQPEDFATYYCLGYFDSSADIVAFGGGTKVEIK
notes: full size IgG
B2: VH32/VL4G1 (antibody, V domains shown)
VH: EVQVLESGGGLVQPGGSLRLSCAVSGFSLSSNAINWVRQAPGKGLEWVGYIAVSGNTYYASWAKGRFTISRDNSKNTVYLQMNSLRAEDTAVYYCGKSNIWGQGTLVTVSS
VL: AQVMTQSPSSLSASVGDRVTITCRSSQSVRTNKLAWFQQKPGQPPKRLIYSASTLDFGVPSRFSGSGSGTEFTLTISSLQPEDFATYYCLGYFDSPADIVAFGGGTKVEIK
B3: VH32/VL35G4 (antibody, V domains shown)
VH: EVQVLESGGGLVQPGGSLRLSCAVSGFSLSSNAINWVRQAPGKGLEWVGYIAVSGNTYYASWAKGRFTISRDNSKNTVYLQMNSLRAEDTAVYYCGKSNIWGQGTLVTVSS
VL: AQVMTQSPSSLSASVGDRVTITCRSSQSVRTNKLAWFQQKPGQPPKRLIYSASTLDFGVPSRFSGSGSGTEFTLTISSLQPEDFATYYCAGYFEAPADIVAFGGGTKVEIK
notes: IgG captured via anti-human Fc
B4: VH35H5/VL31A1 (antibody, V domains shown)
VH: EVQVLESGGGLVQPGGSLRLSCAVSGISLSSNAINWVRQAPGKGLEWVGYIAVSGNTYYASWAKGRFTISRDNSKNTVYLQMNSLRAEDTAVYYCGKSNIWGQGTLVTVSS
VL: AQVMTQSPSSLSASVGDRVTITCRSSQSVRNNKLAWFQQKPGQPPKRLIYSASDLDYGVPSRFSGSGSGTEFTLTISSLQPEDFATYYCLGYFDSSADIVAFGGGTKVEIK
notes: IgG captured via anti-human Fc; also called antibody 1
B5: VH35H5/VL35F2 (antibody, V domains shown)
VH: EVQVLESGGGLVQPGGSLRLSCAVSGISLSSNAINWVRQAPGKGLEWVGYIAVSGNTYYASWAKGRFTISRDNSKNTVYLQMNSLRAEDTAVYYCGKSNIWGQGTLVTVSS
VL: AQVMTQSPSSLSASVGDRVTITCRSSQSVRTNKLAWFQQKPGQPPKRLIYSASTLDFGVPSRFSGSGSGTEFTLTISSLQPEDFATYYCLGYFDSPLDIVAFGGGTKVEIK
notes: as for B3
B6: VH35H5/VL49G1 (antibody, V domains shown)
VH: EVQVLESGGGLVQPGGSLRLSCAVSGISLSSNAINWVRQAPGKGLEWVGYIAVSGNTYYASWAKGRFTISRDNSKNTVYLQMNSLRAEDTAVYYCGKSNIWGQGTLVTVSS
VL: AQVMTQSPSSLSASVGDRVTITCRSSQSVRSNKLAWFQQKPGQPPKRLIYSASNLDYGVPSRFSGSGSGTEFTLTISSLQPEDFATYYCLGYFDSSADIVAFGGGTKVEIK
notes: IgG captured via anti-human Fc; also called antibody 2
B7: VH76A6/VL35G4 (antibody, V domains shown)
VH: EVQVLESGGGLVQPGGSLRLSCAVSGFSLSNSAINWVRQAPGKGLEWVGYIAVSGNTYYASWAKGRFTISRDNSKNTVYLQMNSLRAEDTAVYYCGKSNIWGQGTLVTVSS
VL: AQVMTQSPSSLSASVGDRVTITCRSSQSVRTNKLAWFQQKPGQPPKRLIYSASTLDFGVPSRFSGSGSGTEFTLTISSLQPEDFATYYCAGYFEAPADIVAFGGGTKVEIK
notes: as for B3
B8: VH76A6/VL145B12 (antibody, V domains shown)
VH: EVQVLESGGGLVQPGGSLRLSCAVSGFSLSNSAINWVRQAPGKGLEWVGYIAVSGNTYYASWAKGRFTISRDNSKNTVYLQMNSLRAEDTAVYYCGKSNIWGQGTLVTVSS
VL: AQVMTQSPSSLSASVGDRVTITCRSSQSVRSNKLAWFQQKPGQPPKRLIYAASNLDFGVPSRFSGSGSGTEFTLTISSLQPEDFATYYCLGYFDSSADIVAFGGGTKVEIK
notes: as for B3
B9: VH35H5/VL31A1 Fab fragment (Fab, V domains shown)
VH: EVQVLESGGGLVQPGGSLRLSCAVSGISLSSNAINWVRQAPGKGLEWVGYIAVSGNTYYASWAKGRFTISRDNSKNTVYLQMNSLRAEDTAVYYCGKSNIWGQGTLVTVSS
VL: AQVMTQSPSSLSASVGDRVTITCRSSQSVRNNKLAWFQQKPGQPPKRLIYSASDLDYGVPSRFSGSGSGTEFTLTISSLQPEDFATYYCLGYFDSSADIVAFGGGTKVEIK
B10: VH32/VL22 Fab fragment (Fab, V domains shown)
VH: EVQVLESGGGLVQPGGSLRLSCAVSGFSLSSNAINWVRQAPGKGLEWVGYIAVSGNTYYASWAKGRFTISRDNSKNTVYLQMNSLRAEDTAVYYCGKSNIWGQGTLVTVSS
VL: AQVMTQSPSSLSASVGDRVTITCRSSQSVRTNRLAWFQQKPGQPPKRLIYSASTLDYGVPSRFSGSGSGTEFTLTISSLQPEDFATYYCLGYFDSSADIVAFGGGTKVEIK
B11: VH35H5/VL49G1 Fab fragment (Fab, V domains shown)
VH: EVQVLESGGGLVQPGGSLRLSCAVSGISLSSNAINWVRQAPGKGLEWVGYIAVSGNTYYASWAKGRFTISRDNSKNTVYLQMNSLRAEDTAVYYCGKSNIWGQGTLVTVSS
VL: AQVMTQSPSSLSASVGDRVTITCRSSQSVRSNKLAWFQQKPGQPPKRLIYSASNLDYGVPSRFSGSGSGTEFTLTISSLQPEDFATYYCLGYFDSSADIVAFGGGTKVEIK
B12: VH00/VL00 (antibody, V domains shown)
VH: QSVEESGGRLVTPGTPLTLTCTVSGFSLSSNAINWVRQAPGKGLEWIGYIAVSGNTYYASWAKGRFTISKASTTVDLKMTSPTAEDTGTYFCGKSNIWGPGTLVTVSL
VL: AQVLTQTTSPVSAAVGSTVTISCQSSQSVRTNKLAWFQQKPGQPPKRLIYSASTLDFGVPSRFSASGSGTQFTLTISDVQCDDAATYYCLGYFDCSIADCVAFGGGTEVVVK
notes: variable domains of rabbit mAb 086; also called VH00 with VL00 (rabbit antibody); parental rabbit antibody

What was measured:
[1] = biological target: T4, full length human tau SEQ ID NO: 01 (human, UniProt P10636 1-758); assay: ELISA, non-phosphorylated full-length human tau coated at 1 ug/ml, antibody titrated
T4 construct: not phosphorylated; also called tau protein; non-phosphorylated full-length human tau

[2] = biological target: T1, Tau(pS422) fragment SEQ ID NO: 03; assay: ELISA
Method: (§1) Non-biotinylated peptide/protein/aggregate was added to non-coated Maxisorb plates, biotinylated peptide/protein/aggregate in PBS was added to streptavidin-coated Maxisorb plates, and plates were incubated over-night. The supernatant was discarded and the wells washed three times with 90 μl wash buffer (1x PBS/0.1% Tween 20). Remaining reactive spots were blocked with blocking buffer (1x PBS/2% BSA (Bovine Serum Albumin Fraction V, fatty acid free, Roche, Cat. No.: 10735078001)/0.05% Tween 20) by incubating for 1 hour. The supernatant was discarded and the wells washed three times with 90 μl wash buffer. Samples and control antibody were prepared in 12 dilutions (1:2) in ELISA buffer (1×PBS/0.5% BSA (Bovine Serum Albumin Fraction V, fatty acid free, Roche, Cat. […] The incubation time was 60 minutes at room temperature on a shaker. The supernatant was discarded and the wells washed three times with 90 μl wash buffer. Solutions of secondary antibody were prepared in ELISA buffer. A total of 25 μl antibody-mix was transferred to all wells of the assay plate and the plate was thereafter incubated on shaker for 60 minutes at room temperature. The supernatant was discarded and the wells were washed three times with 90 μl wash buffer. 25 μl of ABTS solution was added to all wells. The absorbance was read at 405 nm-492 nm.

[3] = biological target: T4, full length human tau SEQ ID NO: 01; assay: ELISA
Method: as §1

[4] = biological target: T2, tau peptide residues 416 to 430 of SEQ …; assay: ELISA
Method: as §1

[5] = biological target: T1, Tau(pS422) fragment SEQ ID NO: 03; assay: SPR capture assay (Example 10), 25 C
Method: Binding of pTau fragment to anti-pTau antibodies was investigated by surface plasmon resonance using a BIACORE T200 instrument (GE Healthcare). Around 10,000 resonance units (RU) of the capturing system (10 μg/ml goat anti-human Fc antibody; Jackson Immuno Research; Order Code: JIR 109-005-098) were coupled on a CM5 chip (GE Healthcare BR-1005-30) at pH 5.0 by using an amine coupling kit supplied by the GE Healthcare. As running buffer, HBS-N pH 7.4 (10 mM HEPES, 150 mM NaCl, pH 7.4, GE Healthcare) was used. For measurement of the samples, running and dilution buffer was PBS-T (10 mM phosphate buffered saline including 0.05% Tween 20), pH 7.4. The sample block was set to 12° C. The flow cell was set to 25° C. and primed with running buffer twice.

[6] = biological target: T3, biotinylated pTau fragment …; assay: SPR direct assay (Example 11), Fab over immobilized biotinylated fragment, 25 C
Method: Binding of anti-pTau antibody Fab fragment samples to pTau fragment was investigated by surface plasmon resonance using a BIACORE T200 instrument (GE Healthcare). […] Running and dilution buffer for immobilization was HBS-N, pH 7.4 (10 mM HEPES, 150 mM NaCl, pH 7.4, GE Healthcare). For the following kinetic characterization, running and dilution buffer was PBS-T (10 mM phosphate buffered saline including 0.05% Tween 20), pH 7.4. The sample block was set to 12° C. The flow cell was set to 25° C. and primed with running buffer twice.
Association was measured by injection of the anti-pTau antibody Fab fragment samples at various concentrations in solution for 180 seconds at a flow of 30 μl/min starting with 100 nM in 1:3 dilutions. The dissociation phase was monitored for up to 600 seconds and triggered by switching from the sample solution to running buffer. The surface was regenerated by washing with one injection of 10 mM glycine solution, pH 1.7 for 60 seconds at a flow rate of 10 μl/minute. Bulk refractive index differences were corrected by subtracting the response obtained from a blank surface. Blank injections were also subtracted (=double referencing). For calculation of KD and other kinetic parameters the Langmuir 1:1 model was used.

T4 sequence (P10636 other isoform, or with tags, fused parts or gaps limits assumed): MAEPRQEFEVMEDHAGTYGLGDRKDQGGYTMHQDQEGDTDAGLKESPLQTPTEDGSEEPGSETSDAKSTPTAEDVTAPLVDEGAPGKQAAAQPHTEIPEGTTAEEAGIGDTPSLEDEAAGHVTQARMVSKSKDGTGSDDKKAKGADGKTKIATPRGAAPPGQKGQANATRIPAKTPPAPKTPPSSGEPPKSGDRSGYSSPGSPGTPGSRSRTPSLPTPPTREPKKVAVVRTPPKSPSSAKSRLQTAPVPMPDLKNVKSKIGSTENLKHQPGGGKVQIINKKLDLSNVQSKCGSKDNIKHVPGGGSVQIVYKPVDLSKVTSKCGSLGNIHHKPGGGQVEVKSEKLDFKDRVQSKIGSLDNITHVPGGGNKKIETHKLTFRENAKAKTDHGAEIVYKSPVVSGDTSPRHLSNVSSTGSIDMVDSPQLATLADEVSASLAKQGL

Binder	EC50 [2] [µg/mL]	OD@1 µg/mL [3] [OD]	OD@1 µg/mL [4] [OD]	further results
B1				binding result [1]: no binding (tested: 1000 ng/ml)
B2	0.0273	0.04	1.13	
B3		0.04	0.07	
B4	0.033	0.04	1.03	Kd [5]: 1.62 nM; koff [5]: 0.000616 s⁻¹; kon [5]: 380000 M⁻¹ s⁻¹
B5	0.0452	0.04	1.31	Kd [5]: 2.29 nM; koff [5]: 0.000321 s⁻¹; kon [5]: 140000 M⁻¹ s⁻¹
B6	0.034	0.04	1.42	Kd [5]: 2 nM; koff [5]: 0.000624 s⁻¹; kon [5]: 312000 M⁻¹ s⁻¹
B7		0.04	0.07	
B8		0.04	0.44	
B9				Kd [6]: 0.3 nM; koff [6]: 0.000143 s⁻¹; kon [6]: 410000 M⁻¹ s⁻¹
B10				Kd [6]: 0.6 nM; koff [6]: 0.000276 s⁻¹; kon [6]: 479000 M⁻¹ s⁻¹
B11				Kd [6]: 0.1 nM; koff [6]: 6.03e-05 s⁻¹; kon [6]: 423000 M⁻¹ s⁻¹
B12		0.04	0.54	

From patent US20180079804A1 (Hoffmann-La Roche, published 2018)
